Source: publication PMC4122979 (Bioscience Reports, 2014)

Target: Human CaM (calmodulin) (human, UniProt P0DP23 1-149)
Experiment: cell-based or functional assay

Row | Binder | inhibition of eNOS L-citrulline formation (100 nM eNOS, 0.5 uM CaM) by 10 uM peptide
1 | TRKKTFKEVANAVKISASLM [Unmodified CBD peptide, T495 (heNOS CaM-binding domain, residues 491-510)] | 87%
2 | TRKKDFKEVANAVKISASLM [Phosphomimetic CBD peptide, D495 (heNOS residues 491-510)] | 20%
3 | TRKKAFKEVANAVKISASLM [Phospho-null CBD peptide, A495 (heNOS residues 491-510)] | 70%
